Measured values as given in patent publication US20260152727A1.
Values joined by “and” are separate entries in the source; they are usually repeats but may differ in a detail not shown here. Equal values may be shown once.

Target: RSV fusion (F) protein (prefusion F, on recombinant RSV strain A2 virions) (respiratory syncytial virus (strain A2)) (UniProt P03420)
Test: cell-based or functional assay

Chain of UniProt P03420 (P03420 26-574): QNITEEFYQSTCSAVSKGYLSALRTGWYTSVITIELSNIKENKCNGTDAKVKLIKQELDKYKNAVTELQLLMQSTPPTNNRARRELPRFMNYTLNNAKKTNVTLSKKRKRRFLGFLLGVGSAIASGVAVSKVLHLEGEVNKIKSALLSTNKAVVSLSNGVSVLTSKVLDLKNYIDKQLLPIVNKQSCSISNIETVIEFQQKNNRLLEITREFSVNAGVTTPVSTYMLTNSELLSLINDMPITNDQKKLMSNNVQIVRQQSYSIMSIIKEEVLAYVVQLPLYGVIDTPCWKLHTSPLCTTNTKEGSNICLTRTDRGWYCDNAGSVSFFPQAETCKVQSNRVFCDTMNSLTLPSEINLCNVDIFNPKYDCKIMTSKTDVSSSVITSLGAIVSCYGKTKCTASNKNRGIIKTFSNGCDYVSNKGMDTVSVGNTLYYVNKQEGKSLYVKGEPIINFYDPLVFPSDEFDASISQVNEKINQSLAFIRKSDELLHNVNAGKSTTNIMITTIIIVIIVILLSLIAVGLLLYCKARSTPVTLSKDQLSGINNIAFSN

For anti-prefusion F antibody D25, the complete neutralization of 300 PFU of RSV-HRP (HRP signal OD490, HEp-2 cells) was 370 ng/mL, the complete neutralization of 300 PFU of RSV-Lucia (secreted luciferase, luminometer) (antibody dilution (1:x, of 1 mg/ml)) was 2700 and the highest dilution at which the antibody negatively impacted RSV infectivity (RSV-Lucia) was 5 ng/mL and 1.7 ng/mL. For the same substance, the highest dilution at which the antibody negatively impacted RSV-HRP infectivity was 5 ng/mL.
